Laboratory results from the NTF2 design screens of Basanta et al. (2020).

assay: protease stability score; higher = more stable; yeast display proteolysis, trypsin and chymotrypsin;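 also: relative to predicted unfolded state with 0 unfolded-like and 1 meaning tenfold more protease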

| Sequence | protease stability score |
| --- | --- |
| SEEKRIDQHFTEQLDRLIETGDEEQLNKLADPHARLIFNGRTEHGREESHKLRHELLERWGHDRVHVELKDMEVQGDKLIVHTVIQINGVKFHVEIIVRKINGRWKMTEVRII | 0.314 |
| DESEEDVEYFVKILDRAWATGDEDTLRRLLDPHYRVHVDGKDIIGREEVVRLFKEMGWELRFHRDHIHVQGDKMFIHGTLRLIYNGRIEEREIHLDVNKINGRWLNERVEIR | 1.81 |
| SEDETELKRWVERFERSMHTGDEEDLRQMADPNTRFEVGDKEIHGWDLWSKIHRKEREKLGVDNVTTNIKRLEMYGDKLRLESELIFNGQRLEVILIAEKIDGKWVVTSFHIH | 0.129 |
| DEEEIHNRLAYRLSHELLETGDWHLMILLADPHVRFEDENHEAHGREEYKEHLNEIHELLGLEKFEVRIHSWRVYDGRVIVHGHILFNGVEFNVETVSLKFNGRWIIEEQRLE | 1.36 |
| SEEEEDLKTMSDFVLHLFETGDEDIFNHFADPDARLHIGDKIAHGREHFKRVFEDLMHRLGVDHIEIRRRSITIIGDKVHAHVDGLTVIGDKVHHVELRFVIVKYNGRWFLKRVEVHNR | 1.71 |
| SEEEKHMHKMHELRNKRTKTGDEHWFEKLADPHYRVEIGDKELIGWEYLVRVRREFGIDHLETVHIDSTEIQGEKVIEHVTIHGEFDGVRNDLKVELIVIKFNGRWVMHSTKVK | 0.761 |
| DEIERLFRELVNLIFELLRTGNFRKLEELLDPHTRLTIGDKYYHGRESVIEYLKHLWEQLGVDHMEFHVKRVDIQGEKVNADTEIRIKIGDKTYFRDTVLIFLKIDGRWEIRAWEEK | 1.52 |
| SEEERHIKEFTRRLLHVFITGDEHELKELFDPNTRSIFNGVDVHGWKEITRFIREIREKEVRIRDVKVFNGRVHLEGHSNMEWNGQERRSDVEMHFDVINGQVHEIEIRIR | 1.17 |
| DEDHEEFHRLVHEIFEYWRTGDEESLSELADPHVRYLYGDKIWIGREDMMTFLREIRIDRVHIEDMRVHKIGNKAEIRSDTRMDLHFNGKRLETKTEVKIVLHKVNGRWVIKSIEYRIE | 2.13 |
| SELEEITEKAIRMDLQHEETGDWKKYSDMIDPHARFIVNGVEFVGRHFLLKWFLDVAKRVDHSRMHVDHEEHVDGRIHVDFRFELIFDGREYRIRSHIVADKIDGQWYFRQIRFQ | 1.29 |
| SEEEKMVEYAIRLIDSLIRTGDERVLMSLLDPHAKMDVNGKDLIGREFLKHWTHQYKNVKLRDIKVKDAEVQGDKIRIHVELEIEFNGRRDSRDETWYIDKFDGRWLVEEIRVK | 1.15 |
| SEEEEIARELSEEVYRHWHTGDFRMLERYFDPHVRIIYDGRDYHGREIASTVLRETNKEWRTESMEVKDVKFINGKLHVDISSDTLYNGKRVSTSIKIVSVKVDGQWVIHQMKYV | 1.1 |
| TEDEKRYDDLVRHMLEVHRTGDEDLLERLLDPNARFLIDGVEYHGREQALEIARELRITSIRIRRIEFYGDKVTMDTEIDGRVNGRRRDTRVKEIWLKVDGKWYLESMEIH | 1.43 |
| SEDEEIMKDLLELFFEAMKTGDEDTLRHLFDPNARFVIGDKLLHGREEYIRYLQEWRVEIEHFNIRRLELVDGRIHLEGHMHLHVQYGDKHERRTHHLEWEIIKINGRWIFRSVRIN | 1.48 |
| DEDHRLAVHISKMFEHAESTGDFEISERMADPHTKIDIGDKHYHGMEEWVRFLRELRLSTDHIEIKDSKRYNGRLIIHSRTRITLNVNGKTIDFEIDVTFIFEKVNGRWKLHMYRFD | 0.944 |
| SEHDELLNRLSELLTHLILTGDWKTFSELADPNVLAITDINGRTRHHHGREHFLNLLEELLREFGIDHLWITHIDAFNGVSHTHVNIEVNGRTHELRLHIVIIDGKVHEVHFSFK | 0.34 |
| SEEDEERKHFLELWRESFETGDEDSSRDMADPNTRIHIGDKEQVGWEDVMHEMVKIKNARYHIVVHHVEIQGDKLTMDGEVRIDVNGRLIQIRTIIIARKYDGRWIVTHVHIH | 1.3 |
| SDWNEFLIEVAELLLRWLSTGDEESFHRYVDPRVRLEFNGKELHGREELARFLRHLRWILDHLEFTSREDQGEKFRVEGKSHGHLFFENHFERHDLKNDLNLILVNGRIKEISLRLE | 1.42 |
| SAEEHAQRVILELLIEAYETGDEDMLRRLFDPNVRIEIGDKDFVGREDFDHLLERVKNVVFHEIRLRDVKVYNGKVEDNGEINIRYGDKSRTHQVKIVMIKVDGRWMLHDFEIK | 1.96 |
| DEKEHLLKLAIDILKHLHETGDETLAEELADPNTRVHYGDKHIHGRQRYIEHLHRERRRLGVDHSQIELHNWEVVDGRLHLDGKLTLLVGDKRIEFKVRIIMDKVNGRWILHSLEFH | 0.608 |
| DELEKLLRYWLREFFDALLTGDEEIFTRYMDPEARLIVDGVEYHGREEVLKHLRDKLREIRIKDYVIHSLDFVNGRIHVDVRQDVVIGEKREKTRLHIHIDVIDGKNHELDIEWR | 2.1 |
| SEIDEFSEKAFRLLLETLQTGDWRLTSELVDPNVRVHFEGHEHVGMEEVSKVVRHWRVKRIELKHLEVIGEKMHMILHQDIEVNGQRVRTDMIVTADKIDGVWLLTEVRIK | 1.59 |
| DEEEEHMRKMHEKFRKIRHTGNFEDYFRLLDPNARMHVNGQNMHGRDVVSKWFKHFVEEIRIEHFEIHDVKYIDGRSHEDGWLVGTIDGKHFDSRTEIILIVVDGKLKQFHIHIR | 0.489 |
| DEYDHIAKLMVKLWLEWYLTGDEDYFNHYADPEVRSEVGDKRFHGRELFMRYIWEHHRERGVEIEIIVRRVEVQGEKAEVDGELIVRQGDKEHRLRVHIELKVVNGVLKKIRIEFR | 0.561 |
| SEDDDLIREFFEDWVKSVLTGDEDTIAKLADPHTRHEYGDKEHHGRDLVVEMLTFLYKHIRFEDVRLRHFDIQGNKIILHGKVEGKIDGRHRTFDVTIEVIKVNGQWLWHTIVIR | 1.89 |

| Sequence | protease stability score |
| --- | --- |
| DEHRKHAEDIFRLWLKAVKTGDEEHILDLMDPHVRLIILVGDKEIHLHGREEMKKENERLRHEWGVDRIRLEITRLDVQGDKIHSDGIDIFNGRNFRVKHHMKVVNGRVEEIKIEFE | 0.462 |
| DELHERLEEVLEVRIEAILTGDWHWLSRMLDPDTRLEVGDKTYHGMEKIYEKLHTETRRMGWRMEVEIKDYRFQGDYLNVDGTIHIKIGDKEIQKRSELKIVVVDGRITEFKIEYR | 1.18 |
| DEDDRDMREFWELLFHYLLTGDWESLEKLIDPNARIRVNGKELHGMHYHIRQLTHEVKRFDHIDQRIHHSSVINGKIHLDIHLIINVDGQSFVIHIKMHVDKVDGRWLTRSVHIH | 1.09 |
| DEDEEKLKEFRDVLLHAISTGDEETIKTLVDPHVRIEIDGKERHGRDKVTKLFRDLGVDHVRLTEVSIIGDKLHLDLRLRYGDKERTMIWIISKINGRWLIHTVETH | 1.15 |
| TEEEELLKKFMKDFIQKHVTGDWDSLYKMADPDVKWHINGQQSIGREEVHRMWSEKLKRIDHIEHFHDESIHVIDGRVTLRGRITGNVDGRRYDVEVDFHLFVVDGKLKQFHVHHQ | 0.849 |
| SEDEHHSREFLRVTEEILQTGDEEKREKNADPHMRFVLVYNGRETIIHGRETVVHFIHEELQRLGWDRFRVETERMSVYNGVVHIDIRIFVGDKTIHWHEHAKKVNGRWVYKSVEIRRE | 1.03 |
| SEEEHRMREILDLLTESFHTGDERIHLEYADPHARFDIGDKHIHGRELFTKRWKEWLERFKNITLQLRIDDVSIIDGVFVVEGTLTIRINGVEIERDTHIFLYIVDGRVSTMKRTIH | -0.116 |
| DEEEERFEEVWRRLARALETGDEETVRHLIDPNVLIIIGDKTIHGWESLSTYLKEIRLTISDMRVRSRSEVNGKLEFDTHTHRVVFINGVELHVEERIHITMLKIDGRWHIHSIEFR | 1.45 |
| SEHEEMEQDAREIMERVFHTGDETTMRKLADPHVKFHIGDKLHVGRELFDNFVRYVLEKFKNIRVETEEVRDVNGVVIQDLDENYNGQRYKVRWVMVKINGKWTIERVEIR | 0.599 |
| REEEERLKDLERVMRELWRTGDEREMSRNADPHVKLSVGDKEFHGRELFTKWASRVDHYDHLIIRDIETQGDKVRMYVETEMDIDGKDVKTESFILAVKIDGRWILRSLELR | 0.387 |
| DDEEEEEEKFRKILEEALETGDERILHHFADPHVQTHFNGQTFHGREEWIKILRKLGVERVHLNIKRVEVYGDKIHIDGELHFDGRTHKVELVALKVDGRWLLHKIVIR | 1.68 |
| HDDQKESHEWAKLFEDWLQTGDEESILKQLDPHVRIEIGDKRNHGREELHRYEHEFWTKFGIDHIHIDDIRVQGEKVHLETTVIVNGRKFQQIIIVVFIDGVMQRLVIEDR | 0.798 |
| DEHDKFVEEMARRHIRNLVTGDWEEQSRLMDPHVRIEIDINGRKREYHGREDWKYWLDELKRQFDHYEVRLRDFRIQGEYALFRLEESYIIGDKVIEQETELHIDVFNGRIRRVSFSVK | 0.956 |
| DEEEKYSKEANTMSRHLVETGDEEIMSKLLDPDVRNDVDGVEFHGRELLSRILKEWRVRFESMHIEDEELQGDKVIVHGRELVRMIYDGKTFNTERKVIFIVVKINGRWFIKEVKVL | 0.751 |
| DERHNKQWNKELIKIWTDGDHKKFSEMLDKDVQIQVGDKEYHGREEIVRQYKTLMDRADHFEVKRYEVKGNDITIIFTFQVNGRRDQVRVVFVIENGHVKKITMDKK | 1.97 |
| SELEEDMRYLLKLILDAFRTGDEHTFARLFDPHVRIEIGDKEFVGREFVLHHAHQLRIKRSHFNVEHFEWQGNKIRMHGILHFHGRFDGQERESYVDIHIVIEKVDGRWLVKSLHIH | 1.63 |
| SEEERDLREALEEHKRTLQTGDEELWNKLFDPHARSDINGVEFHGMEDISRHIYKFFIDFGFKHVRFKHVELYGDKLVMRGSLNINGVDLDIEIISRKIDGRWLIHHWIIR | 0.859 |
| DEEEKILLHLLNVILHLLKTGDEEMMTELMDPNMKIDNENHKSHGWEALKFVRDQIRIHSINIREQRVQGEFAILRVDVDVEWNGRRIRTEIELHFVFVNGRVKEVHIQVK | 1.02 |
| RHEEEVLEHWMRLYIEALLTGDEHTLHRLLDPNAKVHIDGRDVVGREEIVRWLREFWNEIRIKHLTISDLKIYGEYVHITGTLNVQVNGQTEHRRIEIDLVIIDGVFKESEVRIH | 2.39 |
| DEEERKMEEALRLMKTTHDTGDWDLERELFDPNVKMDINGRELHGRRHWEKLRKDFGLDNIRFTLRHIDSQGDFILIRGDVEINGVRLDVIIIAEKINGRWIVREVRLR | 0.718 |
| DESEEKAREFLEILVRDVRTGDEESAVRLLDPNVRIEQGDKELHGWEVYIHWAKHIRMRSVHLRTMEVQGDKVILRGDERQEIDGVESVRDVIVYVRKINGRWVMTSIEVL | 2.15 |
| DEATEKAKKAYELWMHSLKTGDEHHLKNLMDPDVRVIIDGVDMHGWEAAHFERRRFDHIHRVHVDHYEFQGNKSIWDGTVDGKVGDKEHRNRRIIIMNVVDGRYKSIHLHVE | 0.991 |
| SKEEKETEKAMEESLHIFETGDWKAFHDNVDPNVRLHIGDKDSHGRERATELYLTVVHHLGINHIQIDSFQINIQGDKVVINIDGTSHVGDKWSRIRVHIVERKIDGRWLISSFKMHIE | 1.07 |
| DEHHEIVRSMSELLTHLHLTGDEEKLSRMADPRVRLDVNGQWFHGREQWEKAFEDFEREMGAKHVKVDHVHVQGNKIILHFHVNVDGVHITVEFDIIIVDGRLKREHIRLK | 0.621 |
| SERHDHAEHVLRLWEHFWKTGDETNLSRLLDPSVRWVIGDKVYHGMETVSHNLSRHYLRADHVEESVHRLNFQGNKVEMDGRIILNVNGVQIDKRSHIELISFNGKIKELDLHIT | 0.371 |
